Molecular target: cell-bound human DR5 (Colo205 and other human cell lines) (human, UniProt O14763 56-440)
Experiment: cell-based or functional assay

Row | fold improvement of IC50, penta against tetra, A549 | fold improvement of IC50, penta against tetra, BxPC-3 | fold improvement of IC50, penta against tetra, Colo205 | fold improvement of IC50, penta against tetra, H226 | fold improvement of IC50, penta against tetra, H2122 | fold improvement of IC50, penta against tetra, Jurkat (72) | fold improvement of IC50, penta against tetra, M30 | fold improvement of IC50, penta against tetra, MiaPaCa-2 | fold improvement of IC50, penta against tetra, Panc-1 | fold improvement of IC50, penta against tetra, T24 | Binder | IC50, cell survival, A549 | IC50, cell survival, BxPC-3 | IC50, cell survival, Colo205 | IC50, cell survival, H226 | IC50, cell survival, H2122 | IC50, cell survival, Jurkat (72) | IC50, cell survival, M30 | IC50, cell survival, MiaPaCa-2 | IC50, cell survival, Panc-1 | IC50, cell survival, T24
1 | 1 fold | 3 fold | 3 fold | 14 fold | 2 fold | 4 fold | 1 fold | 4 fold | 35 fold | 7 fold | 11H6-Hu penta (11H6 hu pentamer) (other) EVQLLESGGGLVQPGGSLRLSCAASGTFDKINNMGWYRQAPGKQRDLVAQITPGGITDYADSVKGRFTISRDNSKNTLYLQMNSLRPEDTAVYYCNAEILKRAYIDVYVNYWGQGTLVTVSSGGGGSGGGGSGGGGSGGGGSGGGGSGGGGSGGGGSEVQLLESGGGLVQPGGSLRLSCAASGTFDKINNMGWYRQAPGKQRDLVAQITPGGITDYADSVKGRFTISRDNSKNTLYLQMNSLRPEDTAVYYCNAEILKRAYIDVYVNYWGQGTLVTVSSGGGGSGGGGSGGGGSGGGGSGGGGSGGGGSGGGGSEVQLLESGGGLVQPGGSLRLSCAASGTFDKINNMGWYRQAPGKQRDLVAQITPGGITDYADSVKGRFTISRDNSKNTLYLQMNSLRPEDTAVYYCNAEILKRAYIDVYVNYWGQGTLVTVSSGGGGSGGGGSGGGGSGGGGSGGGGSGGGGSGGGGSEVQLLESGGGLVQPGGSLRLSCAASGTFDKINNMGWYRQAPGKQRDLVAQITPGGITDYADSVKGRFTISRDNSKNTLYLQMNSLRPEDTAVYYCNAEILKRAYIDVYVNYWGQGTLVTVSSGGGGSGGGGSGGGGSGGGGSGGGGSGGGGSGGGGSEVQLLESGGGLVQPGGSLRLSCAASGTFDKINNMGWYRQAPGKQRDLVAQITPGGITDYADSVKGRFTISRDNSKNTLYLQMNSLRPEDTAVYYCNAEILKRAYIDVYVNYWGQGTLVTVSS | > 10000 pM | 4.6 pM | 1.2 pM | 12.4 pM | 1.7 pM | 1.7 pM | > 10000 pM | 3.1 pM | 6.7 pM | 3.1 pM
2 | 1 fold | 6 fold | 5 fold | 5 fold | 7 fold | 5 fold | 1 fold | 5 fold | 22 fold | 10 fold | 4E6-Hu penta (4E6 hu pentamer) (other) EVQLLESGGGLVQPGGSLRLSCAASGRTFGSIRVGWFRQAPGKGREFVSAINRNDGTTYYADSVKGRFTISRDNSKNTVYLQMNSLRPEDTAVYYCAAGLQYNRAADRVPVGAVYWGQGTLVTVSSGGGGSGGGGSGGGGSGGGGSGGGGSGGGGSGGGGSEVQLLESGGGLVQPGGSLRLSCAASGRTFGSIRVGWFRQAPGKGREFVSAINRNDGTTYYADSVKGRFTISRDNSKNTVYLQMNSLRPEDTAVYYCAAGLQYNRAADRVPVGAVYWGQGTLVTVSSGGGGSGGGGSGGGGSGGGGSGGGGSGGGGSGGGGSEVQLLESGGGLVQPGGSLRLSCAASGRTFGSIRVGWFRQAPGKGREFVSAINRNDGTTYYADSVKGRFTISRDNSKNTVYLQMNSLRPEDTAVYYCAAGLQYNRAADRVPVGAVYWGQGTLVTVSSGGGGSGGGGSGGGGSGGGGSGGGGSGGGGSGGGGSEVQLLESGGGLVQPGGSLRLSCAASGRTFGSIRVGWFRQAPGKGREFVSAINRNDGTTYYADSVKGRFTISRDNSKNTVYLQMNSLRPEDTAVYYCAAGLQYNRAADRVPVGAVYWGQGTLVTVSSGGGGSGGGGSGGGGSGGGGSGGGGSGGGGSGGGGSEVQLLESGGGLVQPGGSLRLSCAASGRTFGSIRVGWFRQAPGKGREFVSAINRNDGTTYYADSVKGRFTISRDNSKNTVYLQMNSLRPEDTAVYYCAAGLQYNRAADRVPVGAVYWGQGTLVTVSS | > 10000 pM | 5 pM | 0.7 pM | 27.2 pM | 0.8 pM | 3.6 pM | > 10000 pM | 3.8 pM | 10.5 pM | 4.3 pM
